The numbers were not newly measured in PMC6406280, which cites them from elsewhere.

In one data set the target is T1, thrombin (UniProt P00734+P00734). As to the kind of experiment: thrombin inhibition (apparent Ki). To be noted: no binding assay done in this paper (SEC, CD/UV melting, analysis of published structures); conditions of the cited assays not in the material.
On to CACTGGTAGGTTGGGTAGGGTGGTCCAGTG [jaa], for which the Ki was 1.34 nM.

For the substance CGCCTAGGTTGGTGTGGTTGGTGGCG [aaj], the Ki is 13.4 nM.

As for CACTGGTAGGTTGGGTAGGGTGGGGCCAGTG [jja], the Ki was 1.2 nM.

With CGCCTAGGTTGGTGTGGTTGGGGGGCG [ajj], the Ki was 48.6 nM.

For the substance “CACTGGTAGGTTGGTGTGGTTGGGGCCAGTG [31-TBA (jjj)]”, the Ki was 0.34 nM.

CGCCTAGGTTGGGTAGGGTGGGGGGCG [aja]: the Ki was 13.2 nM.

For “CGCCTAGGTTGGGTAGGGTGGTGGCG [NU172 (aaa)]”, the Ki is 0.29 nM.

Consider CACTGGTAGGTTGGTGTGGTTGGTCCAGTG [jaj], for which the Ki is 14.2 nM.

Another data set concerns the target T1, thrombin. As to the kind of experiment: not stated (cited). Conditions: modified TBA, not described; no binding assay done in this paper (SEC, CD/UV melting, analysis of published structures); conditions of the cited assays not in the material.
As for mTBA, the Kd was 25 nM.

Staying with this data set, now noted: no binding assay done in this paper (SEC, CD/UV melting, analysis of published structures); conditions of the cited assays not in the material.
Regarding RE31, the Kd was 0.56 nM.

“CGCCTAGGTTGGGTAGGGTGGTGGCG [NU172 (aaa)]”: the Kd was 35 nM.

A further data set has as its target T1, thrombin. The data set is described as follows: not stated (cited; equals the aKi). To be noted: no binding assay done in this paper (SEC, CD/UV melting, analysis of published structures); conditions of the cited assays not in the material.
On to “CGCCTAGGTTGGGTAGGGTGGTGGCG [NU172 (aaa)]”, for which the Kd was 0.29 nM.

The term Kd denotes the concentration at which binding is half-saturated.
